Assay results published in article PMC8840716, “Functional Antagonism of WRI1 and TCP20 Modulates GH3.3 Expression to Maintain Auxin Homeostasis in Roots” (Plants, 2022).

Target: T1, GST-AtWRI1 (Arabidopsis, UniProt Q6X5Y6 1-430)
T1 construct: Arabidopsis WRINKLED1 (AtWRI1), AT3G54320, full-length, sub-cloned into pET41a-GST; also called WRINKLED1; GST agarose-coupled AtWRI1; source: E. coli BL21 (DE3), purified
T1 sequence (looked up): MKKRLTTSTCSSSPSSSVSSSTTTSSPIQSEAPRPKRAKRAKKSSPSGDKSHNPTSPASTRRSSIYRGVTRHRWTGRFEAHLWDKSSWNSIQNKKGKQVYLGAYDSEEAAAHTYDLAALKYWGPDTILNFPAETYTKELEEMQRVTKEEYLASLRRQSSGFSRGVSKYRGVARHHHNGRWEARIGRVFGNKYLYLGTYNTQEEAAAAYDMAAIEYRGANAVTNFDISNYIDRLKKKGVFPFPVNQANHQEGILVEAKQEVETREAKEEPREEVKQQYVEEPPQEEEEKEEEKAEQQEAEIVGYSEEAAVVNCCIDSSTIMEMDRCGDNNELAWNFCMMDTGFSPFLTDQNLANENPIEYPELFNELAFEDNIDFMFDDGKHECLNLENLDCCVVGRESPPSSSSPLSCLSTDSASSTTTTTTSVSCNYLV
Assay: pull-down; purified His-TCP20 incubated with GST beads coupled with purified GST-AtWRI1; 20 mM Tris-HCl pH 7.4, 150 mM NaCl, 1 mM DTT, 0.1 mM EDTA, 0.1% IGEPAL CA-630, 4 °C overnight, 5 washes; immunoblot with anti-His antibody
Conditions: both partners purified

- binding result: binds
B1: His-TCP20 (natural protein)
chain: not shown
notes: Arabidopsis TCP20, AT3G27010, full-length, sub-cloned into pET41a-6xHis; also called His-tagged TCP20; source: E. coli BL21 (DE3), purified
